Columns and labels:
Conditions in all cases: protein: recombinant; tags: none stated (pET3a, untagged); label: 5'-32P; single strand
DinG D10A E12A [1] = target: T1, DinG D10A E12A (Bacillus subtilis, UniProt P54394 1-931, D10A;E12A); test: EMSA; 2 mM EDTA, no metal; text names lssDNA38, Methods and Fig S4 legend give lssDNA45; EMSA, buffer D (composition not in material; 3 mM MgCl2, or 2 mM EDTA instead), 0.5 nM DNA, 37 °C, 10 min (text: 5 min), 15% native PAGE in TBE 1X; pH and salt
T1 sequence: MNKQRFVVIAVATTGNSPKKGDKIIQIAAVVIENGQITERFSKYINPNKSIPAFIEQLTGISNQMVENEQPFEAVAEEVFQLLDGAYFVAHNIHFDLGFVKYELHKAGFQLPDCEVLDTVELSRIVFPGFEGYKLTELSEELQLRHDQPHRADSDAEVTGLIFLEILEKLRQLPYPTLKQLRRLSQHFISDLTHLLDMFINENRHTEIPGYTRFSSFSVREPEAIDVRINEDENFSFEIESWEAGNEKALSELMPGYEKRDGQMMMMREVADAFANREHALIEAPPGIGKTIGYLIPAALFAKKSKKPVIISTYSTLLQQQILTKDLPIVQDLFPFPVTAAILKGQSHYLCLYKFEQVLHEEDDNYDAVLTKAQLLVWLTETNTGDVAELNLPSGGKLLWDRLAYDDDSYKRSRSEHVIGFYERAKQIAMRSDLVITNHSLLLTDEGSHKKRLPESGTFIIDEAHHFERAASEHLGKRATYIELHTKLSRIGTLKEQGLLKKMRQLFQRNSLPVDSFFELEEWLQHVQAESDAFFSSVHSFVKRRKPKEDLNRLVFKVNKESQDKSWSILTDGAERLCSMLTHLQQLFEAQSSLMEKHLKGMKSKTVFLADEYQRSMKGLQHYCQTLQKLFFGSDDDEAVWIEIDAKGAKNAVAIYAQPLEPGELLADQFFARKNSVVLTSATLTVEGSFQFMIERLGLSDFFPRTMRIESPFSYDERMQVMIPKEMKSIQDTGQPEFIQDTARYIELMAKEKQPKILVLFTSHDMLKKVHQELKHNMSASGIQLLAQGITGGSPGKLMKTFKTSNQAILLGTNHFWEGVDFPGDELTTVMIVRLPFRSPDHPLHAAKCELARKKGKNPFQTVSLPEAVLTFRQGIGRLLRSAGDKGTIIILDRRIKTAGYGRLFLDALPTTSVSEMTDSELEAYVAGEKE

DinG D10A E12A [2] = target: T1, DinG D10A E12A; test: EMSA; 3 mM Mg2+; C1, C2 and well complexes; EMSA, buffer D (composition not in material; 3 mM MgCl2, or 2 mM EDTA instead), 0.5 nM DNA, 37 °C, 10 min (text: 5 min), 15% native PAGE in TBE 1X; pH and salt
DinG K290A = target: T2, DinG K290A (Bacillus subtilis, UniProt P54394 1-931, K290A); test: EMSA; 2 mM EDTA, no metal; Kapp; text names lssDNA38, Methods and Fig S4 legend give lssDNA45; EMSA, buffer D (composition not in material; 3 mM MgCl2, or 2 mM EDTA instead), 0.5 nM DNA, 37 °C, 10 min (text: 5 min), 15% native PAGE in TBE 1X; pH and salt
T2 sequence: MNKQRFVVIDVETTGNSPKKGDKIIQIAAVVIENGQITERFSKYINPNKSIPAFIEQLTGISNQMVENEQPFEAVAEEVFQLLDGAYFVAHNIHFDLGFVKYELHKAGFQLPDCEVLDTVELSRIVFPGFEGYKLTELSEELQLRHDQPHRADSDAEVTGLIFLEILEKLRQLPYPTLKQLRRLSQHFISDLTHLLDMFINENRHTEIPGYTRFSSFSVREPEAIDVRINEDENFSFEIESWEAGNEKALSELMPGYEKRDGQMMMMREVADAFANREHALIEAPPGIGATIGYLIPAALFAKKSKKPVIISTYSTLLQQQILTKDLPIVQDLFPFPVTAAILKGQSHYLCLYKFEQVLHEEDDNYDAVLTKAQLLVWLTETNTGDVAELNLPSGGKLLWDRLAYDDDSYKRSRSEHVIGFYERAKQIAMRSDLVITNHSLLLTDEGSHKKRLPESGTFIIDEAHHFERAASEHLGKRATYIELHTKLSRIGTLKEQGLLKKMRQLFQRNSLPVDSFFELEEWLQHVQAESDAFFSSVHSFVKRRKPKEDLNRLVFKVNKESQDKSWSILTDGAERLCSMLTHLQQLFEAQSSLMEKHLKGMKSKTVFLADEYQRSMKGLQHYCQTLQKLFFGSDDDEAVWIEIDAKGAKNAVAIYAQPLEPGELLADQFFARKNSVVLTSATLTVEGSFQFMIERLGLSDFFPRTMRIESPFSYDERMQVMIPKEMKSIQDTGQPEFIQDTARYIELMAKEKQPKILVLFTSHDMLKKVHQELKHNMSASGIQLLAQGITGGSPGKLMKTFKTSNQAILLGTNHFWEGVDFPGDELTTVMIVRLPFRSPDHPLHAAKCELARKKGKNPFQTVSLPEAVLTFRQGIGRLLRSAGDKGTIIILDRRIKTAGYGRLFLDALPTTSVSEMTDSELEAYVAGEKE

GTACGTATTCAAGATACCTCGTACTCTGTACTGACTCGGATCCTA (ssDNA, biotin-T at position 44 (second from 3' end)) [3'-Biotin gamma32P-lssDNA45]
binding signal (DinG D10A E12A [1]): ~2 fold lower affinity than its Mg2+-bound state | binding signal (DinG D10A E12A [2]): ~37 fold lower affinity than wt DinG | apparent K (half saturation) (DinG K290A): ~1.1 nM

— article PMC12525004, “Bacillus subtilis DinG 3′⟶5′ Exo(ribo)nuclease: A Helpmate to Mitigate Replication Stress” (International Journal of Molecular Sciences, 2025)
